# According to US20230265151A1, “GIP/GLP1 CO-AGONIST COMPOUNDS” (priority 2020, published 2023):
# Substitutions are numbered along the chain they refer to. *1 amine or outer side, *2 acyl side, *3 side chain or, on linkers, in order; H or OH if unused. Where no end group is shown, it is not given here. Side-chain parts run from the residue outwards. [ ]: non-standard residue; d: D form. The star is where a group is joined. αMePhe(2-F) = C[C@](N)(Cc1ccccc1F)C(=O)O; γGlu = O=C(O)[C@H](CCC(=O)[*:2])N[*:1]; C14 diacid = O=C(O)CCCCCCCCCCCCC(=O)*; αMeY = C[C@](N)(Cc1ccc(O)cc1)C(=O)O; αMeL = CC(C)C[C@](C)(N)C(=O)O; Nle = CCCC[C@H](N)C(=O)O; Orn = NCCC[C@H](N)C(=O)O; AEEA = NCCOCCOCC(=O)O; Aib = CC(C)(N)C(=O)O
# T1: human GIP receptor (human, UniProt P48546 22-466)
# T1 sequence (looked up): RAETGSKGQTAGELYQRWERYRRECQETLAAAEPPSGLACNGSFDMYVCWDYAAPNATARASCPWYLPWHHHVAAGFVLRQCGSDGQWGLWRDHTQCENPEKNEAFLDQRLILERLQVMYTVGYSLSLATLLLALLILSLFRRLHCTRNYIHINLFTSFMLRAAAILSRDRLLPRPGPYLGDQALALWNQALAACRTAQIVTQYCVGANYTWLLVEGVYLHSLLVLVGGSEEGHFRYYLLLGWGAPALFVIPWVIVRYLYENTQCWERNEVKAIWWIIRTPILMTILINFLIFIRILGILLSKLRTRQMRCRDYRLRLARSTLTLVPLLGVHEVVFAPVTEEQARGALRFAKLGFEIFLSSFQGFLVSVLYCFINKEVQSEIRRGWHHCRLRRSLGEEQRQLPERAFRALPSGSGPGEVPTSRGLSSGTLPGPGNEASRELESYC
# B1: Example 461 (peptide)
# peptide: YXEGTXTSDXXIXLDXQAQXXFIKXLIKGGPSSGAPPPS
# modifications: Y-Aib-EGT-αMeF(2F)-TSD-4Pal-Aib-I-αMeL-LD-Orn-QAQ-Aib-Orn-FIK(PEG4-(γ-Glu)-(10-(4-carboxyphenoxy)decanoyl))-αMeY-LIK(PEG4-(γ-Glu)-(10-(4-carboxyphenoxy)decanoyl))GGPSSGAPPPS-NH2
# B2: Example 478 (peptide)
# peptide: B1 peptide with X10Y, Q17I
# modifications: Y-Aib-EGT-αMeF(2F)-TSDY-Aib-I-αMeL-LD-Orn-IAQ-Aib-Orn-FIK((2-[2-(2-Amino-ethoxy)-ethoxy]-acetyl)3-(γ-Glu)-CO-(CH2)12-CO2H)-αMeY-LIK((2-[2-(2-Amino-ethoxy)-ethoxy]-acetyl)3-(γ-Glu)-CO-(CH2)12-CO2H)GGPSSGAPPPS-NH2
# B3: Example 459 (peptide)
# peptide: B1 peptide
# modifications: Y-Aib-EGT-αMeF(2F)-TSD-4Pal-Aib-I-αMeL-LD-Orn-QAQ-Aib-Orn-FIK((2-[2-(2-Amino-ethoxy)-ethoxy]-acetyl)-(γ-Glu)-CO-(CH2)12-CO2H)-αMeY-LIK((2-[2-(2-Amino-ethoxy)-ethoxy]-acetyl)-(γ-Glu)-CO-(CH2)12-CO2H)GGPSSGAPPPS-NH2
# B4: Example 476 (peptide)
# peptide: B1 peptide
# modifications: Y-Aib-EGT-αMeF(2F)-TSD-4Pal-Aib-I-αMeL-LD-Orn-QAQ-Aib-Orn-FIK((2-[2-(2-Amino-ethoxy)-ethoxy]-acetyl)3-(γ-Glu)-CO-(CH2)12-CO2H)-αMeY-LIK((2-[2-(2-Amino-ethoxy)-ethoxy]-acetyl)3-(γ-Glu)-CO-(CH2)12-CO2H)GGPSSGAPPPS-NH2
# B5: Example 482 (peptide)
# peptide: B1 peptide
# modifications: Y-Aib-EGT-αMeF(2F)-TSD-4Pal-Aib-I-αMeL-LD-Orn-QAQ-Aib-Orn-FIK((γ-Glu)-(2-[2-(2-Amino-ethoxy)-ethoxy]-acetyl)2-(γ-Glu)-CO-(CH2)12-CO2H)-αMeY-LIK((γ-Glu)-(2-[2-(2-Amino-ethoxy)-ethoxy]-acetyl)2-(γ-Glu)-CO-(CH2)12-CO2H)GGPSSGAPPPS-NH2
# B6: Example 486 (peptide)
# peptide: B1 peptide
# modifications: Y-Aib-EGT-αMeF(2F)-TSD-4Pal-Aib-I-αMeL-LD-Orn-QAQ-Aib-Orn-FIK((2-[2-(2-Amino-ethoxy)-ethoxy]-acetyl)-(γ-Glu)3-CO-(CH2)12-CO2H)-αMeY-LIK((2-[2-(2-Amino-ethoxy)-ethoxy]-acetyl)-(γ-Glu)3-CO-(CH2)12-CO2H)GGPSSGAPPPS-NH2
# B7: Example 450 (peptide)
# peptide: B1 peptide
# modifications: not fully specified; Y-Aib-EGT-αMeF(2F)-TSD-4Pal-Aib-I-αMeL-LD-Orn-QAQ-Aib-Orn-FIK((2-[2-(2-Amino-ethoxy)-ethoxy]-acetyl)-Aoc-(γ-Glu)-CO-(CH2)12-CO2)-αMeY-LIK((2-[2-(2-Amino-ethoxy)-ethoxy]-acetyl)-Aoc-(γ-Glu)-CO-(CH2)12-CO2)GGPSSGAPPPS-NH2
# B8: Example 456 (peptide)
# peptide: B1 peptide
# modifications: Y-Aib-EGT-αMeF(2F)-TSD-4Pal-Aib-I-αMeL-LD-Orn-QAQ-Aib-Orn-FIK(Aoc-(2-[2-(2-Amino-ethoxy)-ethoxy]-acetyl)-(γ-Glu)-(10-(4-carboxyphenoxy)decanoyl))-αMeY-LIK(Aoc-(2-[2-(2-Amino-ethoxy)-ethoxy]-acetyl)-(γ-Glu)-(10-(4-carboxyphenoxy)decanoyl))GGPSSGAPPPS-NH2
# B9: Example 454 (peptide)
# peptide: B1 peptide
# modifications: not fully specified; Y-Aib-EGT-αMeF(2F)-TSD-4Pal-Aib-I-αMeL-LD-Orn-QAQ-Aib-Orn-FIK((2-[2-(2-Amino-ethoxy)-ethoxy]10-(4-carboxyphenoxy)decanoyl))-αMeY-LIK((2-[2-(2-Amino-ethoxy)-ethoxy]-acetyl)-Aoc-(γ-Glu)-(10-(4-carboxyphenoxy)decanoyl))GGPSSGAPPPS-NH2
# B10: Example 484 (peptide)
# peptide: B1 peptide
# modifications: Y-Aib-EGT-αMeF(2F)-TSD-4Pal-Aib-I-αMeL-LD-Orn-QAQ-Aib-Orn-FIK((2-[2-(2-Amino-ethoxy)-ethoxy]-acetyl)-(γ-Glu)-(2-[2-(2-Amino-ethoxy)-ethoxy]-acetyl)-(γ-Glu)-CO-(CH2)12-CO2H)-αMeY-LIK((2-[2-(2-Amino-ethoxy)-ethoxy]-acetyl)-(γ-Glu)-(2-[2-(2-Amino-ethoxy)-ethoxy]-acetyl)-(γ-Glu)-CO-(CH2)12-CO2H)GGPSSGAPPPS-NH2
# B11: Example 452 (peptide)
# peptide: B1 peptide
# modifications: not fully specified; Y-Aib-EGT-αMeF(2F)-TSD-4Pal-Aib-I-αMeL-LD-Orn-QAQ-Aib-Orn-FIK(Aoc-(2-[2-(2-Amino-ethoxy)-ethoxy]-acetyl)-(γ-Glu)-CO-(CH2)12-CO2)-αMeY-LIK(Aoc-(2-[2-(2-Amino-ethoxy)-ethoxy]-acetyl)-(γ-Glu)-CO-(CH2)12-CO2)GGPSSGAPPPS-NH2
# B12: Example 473 (peptide)
# peptide: B1 peptide
# modifications: Y-Aib-EGT-αMeF(2F)-TSD-4Pal-Aib-I-αMeL-LD-Orn-QAQ-Aib-Orn-FIK((2-[2-(2-Amino-ethoxy)-ethoxy]-acetyl)-Trx-(γ-Glu)-(10-(4-carboxyphenoxy)decanoyl))-αMeY-LIK(((2-[2-(2-Amino-ethoxy)-ethoxy]-acetyl)-Trx-(γ-Glu)-(10-(4-carboxyphenoxy)decanoyl))GGPSSGAPPPS-NH2)
# B13: Example 480 (peptide)
# peptide: B1 peptide with X10Y
# modifications: Y-Aib-EGT-αMeF(2F)-TSDY-Aib-I-αMeL-LD-Orn-QAQ-Aib-Orn-FIK((2-[2-(2-Amino-ethoxy)-ethoxy]-acetyl)2-(γ-Glu)2-CO-(CH2)12-CO2H)-αMeY-LIK((2-[2-(2-Amino-ethoxy)-ethoxy]-acetyl)2-(γ-Glu)2-CO-(CH2)12-CO2H)GGPSSGAPPPS-NH2
# B14: Example 469 (peptide)
# peptide: B1 peptide
# modifications: Y-Aib-EGT-αMeF(2F)-TSD-4Pal-Aib-I-αMeL-LD-Orn-QAQ-Aib-Orn-FIK(PEG5-(γ-Glu)-(10-(4-carboxyphenoxy)decanoyl))-αMeY-LIK(PEG5-(γ-Glu)-(10-(4-carboxyphenoxy)decanoyl))GGPSSGAPPPS-NH2
# B15: Example 455 (peptide)
# peptide: B1 peptide
# modifications: Y-Aib-EGT-αMeF(2F)-TSD-4Pal-Aib-I-αMeL-LD-Orn-QAQ-Aib-Orn-FIK(Ahx-(2-[2-(2-Amino-ethoxy)-ethoxy]-acetyl)-(γ-Glu)-(10-(4-carboxyphenoxy)decanoyl))-αMeY-LIK(Ahx-(2-[2-(2-Amino-ethoxy)-ethoxy]-acetyl)-(γ-Glu)-(10-(4-carboxyphenoxy)decanoyl))GGPSSGAPPPS-NH2
# B16: Example 468 (peptide)
# peptide: B1 peptide
# modifications: Y-Aib-EGT-αMeF(2F)-TSD-4Pal-Aib-I-αMeL-LD-Orn-QAQ-Aib-Orn-FIK(PEG6-(γ-Glu)-(10-(4-carboxyphenoxy)decanoyl))-αMeY-LIK(PEG6-(γ-Glu)-(10-(4-carboxyphenoxy)decanoyl))GGPSSGAPPPS-NH2
# B17: Example 487 (peptide)
# peptide: B1 peptide
# modifications: Y-Aib-EGT-αMeF(2F)-TSD-4Pal-Aib-I-αMeL-LD-Orn-QAQ-Aib-Orn-FIK((2-[2-(2-Amino-ethoxy)-ethoxy]-acetyl)-(γ-Glu)3-(10-(4-carboxyphenoxy)decanoyl))-αMeY-LIK((2-[2-(2-Amino-ethoxy)-ethoxy]-acetyl)-(γ-Glu)3--(10-(4-carboxyphenoxy)decanoyl))GGPSSGAPPPS-NH2
# B18: Example 471 (peptide)
# peptide: B1 peptide
# modifications: Y-Aib-EGT-αMeF(2F)-TSD-4Pal-Aib-I-αMeL-LD-Orn-QAQ-Aib-Orn-FIK((2-[2-(2-Amino-ethoxy)-ethoxy]-acetyl)2--Trx-(γ-Glu)-(10-(4-carboxyphenoxy)decanoyl))-αMeY-LIK(((2-[2-(2-Amino-ethoxy)-ethoxy]-acetyl)2--Trx-(γ-Glu)-(10-(4-carboxyphenoxy)decanoyl))GGPSSGAPPPS-NH2)
# B19: Example 467 (peptide)
# peptide: B1 peptide
# modifications: Y-Aib-EGT-αMeF(2F)-TSD-4Pal-Aib-I-αMeL-LD-Orn-QAQ-Aib-Orn-FIK(PEG5-(γ-Glu)-CO-(CH2)12-CO2H)-αMeY-LIK(PEG5-(γ-Glu)-CO-(CH2)12-CO2H)GGPSSGAPPPS-NH2
# Target: T1, human GIP receptor
# Assay: cell-based or functional assay
Binder,cAMP EC50 (1.0% HSA) [nM],cAMP Emax (1.0% HSA) [%]
B1,0.247,
B2,0.517,
B3,0.323,
B4,0.154,
B5,0.89,
B6,0.239,
B7,2.44,
B8,0.878,
B9,1.3,
B10,0.453,
B11,1.21,
B12,0.979,
B13,0.29,
B14,0.203,
B15,0.362,
B16,0.222,
B17,0.429,
B18,0.568,
B19,0.35,
Y[Aib]EGT[αMePhe(2-F)]TSD[Nle]SI[αMeL]LD[Orn]QAQ[Aib][Orn]FIK([AEEA-AEEA-γGlu-C14 diacid])[αMeY]LIK([AEEA-AEEA-γGlu-C14 diacid])GGPSSGAPPPS-NH2 [Example 490],0.976,97.1

# Target: human glucagon receptor (human, UniProt P47871 26-477)
# Assay: cell-based or functional assay
# Sequence of human glucagon receptor (P47871 26-477): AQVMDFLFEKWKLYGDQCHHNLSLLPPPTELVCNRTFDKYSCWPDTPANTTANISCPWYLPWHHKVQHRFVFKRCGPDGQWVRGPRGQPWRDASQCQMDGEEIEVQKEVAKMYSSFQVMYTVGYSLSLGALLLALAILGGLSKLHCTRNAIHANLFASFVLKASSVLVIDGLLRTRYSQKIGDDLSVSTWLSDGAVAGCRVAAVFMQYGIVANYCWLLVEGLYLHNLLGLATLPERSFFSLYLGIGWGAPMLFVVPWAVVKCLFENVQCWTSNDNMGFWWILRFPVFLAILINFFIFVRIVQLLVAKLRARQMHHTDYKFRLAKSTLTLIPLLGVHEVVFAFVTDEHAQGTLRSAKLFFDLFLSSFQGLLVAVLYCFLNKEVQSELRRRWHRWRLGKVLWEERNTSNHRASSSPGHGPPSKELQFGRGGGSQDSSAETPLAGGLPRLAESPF
row,Binder,cAMP EC50 (1.0% HSA) [nM]
1,B1,> 10100
2,B2,> 9950
3,B3,> 9950
4,B4,> 9950
5,B5,> 9950
6,B6,> 9950
7,B7,> 9950
8,B8,> 9950
9,B9,> 9950
10,B10,> 9950
11,B11,> 9950
12,B12,> 9950
13,B13,> 9950
14,B14,> 9950
15,B15,> 9950
16,B16,> 10100
17,B17,> 9950
18,B18,> 9950
19,B19,> 10100
20,Y[Aib]EGT[αMePhe(2-F)]TSD[Nle]SI[αMeL]LD[Orn]QAQ[Aib][Orn]FIK([AEEA-AEEA-γGlu-C14 diacid])[αMeY]LIK([AEEA-AEEA-γGlu-C14 diacid])GGPSSGAPPPS-NH2 [Example 490],> 9950

# Target: human GLP-1 receptor (human, UniProt P43220 24-463)
# Assay: cell-based or functional assay
Binder,cAMP EC50 (1.0% HSA) [nM],cAMP Emax (1.0% HSA) [%]
B1,2.76,
B2,6.16,108
B3,4.87,
B4,1.5,
B5,4.85,
B6,2,
B7,32.3,
B8,14.7,
B9,18.6,
B10,3.66,
B11,16.8,
B12,7.07,
B13,2.65,104
B14,2.33,
B15,5.24,
B16,1.84,
B17,3.16,
B18,4.36,
B19,2.87,
Y[Aib]EGT[αMePhe(2-F)]TSD[Nle]SI[αMeL]LD[Orn]QAQ[Aib][Orn]FIK([AEEA-AEEA-γGlu-C14 diacid])[αMeY]LIK([AEEA-AEEA-γGlu-C14 diacid])GGPSSGAPPPS-NH2 [Example 490],7.68,
